These results are taken from the supplement of paper PMC10567573.

The data set can be described thus: protein stability index of a GFP-peptide fusion (GPS, HEK-293T) (PSI 1-6); higher = more stable.
The mark [1] stands for this setting: treatment: DMSO, c terminus: a fixed tail appended.
The mark [2] stands for this setting: treatment: MLN4924 1 uM, 8 h, c terminus: a fixed tail appended.
The mark [3] stands for this setting: treatment: DMSO, c terminus: native.
[4] abbreviates: treatment: MLN4924 1 uM, 8 h, c terminus: native.

± gives the standard deviation.
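Further: 24-mer peptide tiles fused after GFP, lentivirally expressed, FACS-sorted into six equal bins by GFP/DsRed ratio, decoded by Illumina sequencing, PSI is the read-weighted mean bin number.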

For KPKIEDVGSDEEDDSGKDKKKKTK [HSP90AB1], the protein stability index by setting is: under setting [1], 5.54 ± 0.24; under setting [2], 5.56 ± 0.12.

On to KPSFQSGGRRRPPASSRNRSPSGS [RBMY1A1], for which the protein stability index turned out to be 4.93 ± 0.33 under setting [1] and 5.35 ± 0.32 under setting [2].

Turning to KRKKLSTWKQELLKLMDRHKKDCA [ZNF75A], the protein stability index by setting is: under setting [1], 2.7 ± 0.15; under setting [2], 2.83 ± 0.21.

Take KSAILVPSEKKVAIIRTPPKSPAT [MAP2]: the protein stability index came out at 4.32 ± 0.14 under setting [1] and 4.41 ± 0.1 under setting [2].

Consider KVRSLETENSALQLQVTEREEVRG [LMNB1], for which the protein stability index is 5.22 ± 0.35 under setting [1] and 5.53 ± 0.15 under setting [2].

On to KYKVHGKEILRTLQDVFCWLPLAT [PPEF2], for which the protein stability index is, setting by setting: under setting [1], 3.08 ± 0.62; under setting [2], 3.3 ± 1.7.

As for LALCQRYYHRGHVDPANDTFDIDP [MCOLN1], the protein stability index by setting is: under setting [1], 3.11 ± 0.13; under setting [2], 3.23 ± 0.29.

Consider LASYLEKVRQLERDNAELEKLIQE [KRT34], for which the protein stability index was found to be 3.33 ± 0.22 under setting [1] and 3.5 ± 0.24 under setting [2].

Take LAYYEVCSWKGATKQRIQDQKVPY [CHIT1]: the protein stability index is 2.71 ± 0.4 under setting [1] and 2.8 ± 0.37 under setting [2].

With LCGAGSEPSIAPTSCAGNLPSRPP [RSPH3], the protein stability index reads like this: under setting [1], 4.36 ± 0.36; under setting [2], 4.28 ± 0.21.

As for LDCADALLKAGADVNKTDHSQRTA [INVS], the protein stability index is 5.09 ± 0.38 under setting [1] and 5.13 ± 0.43 under setting [2].

Regarding LDKQAKLSRAYDGTTYLPGIVGLN [USP39], the protein stability index reads like this: under setting [1], 3.15 ± 0.39; under setting [2], 3.1 ± 0.2.

LDMRRDHEEQLQRLKLLKDREVDA [FBF1] had a protein stability index under setting [1] of 5.08 ± 0.21 and a protein stability index under setting [2] of 4.91 ± 0.3.

LDNLLAFVCDIRPEIHENYRING [ATP6V1G1]: the protein stability index by setting is: under setting [3], 2.27 ± 0.49; under setting [4], 2.47 ± 0.21.

Take LDSVSPCPSSPKQIHLDVDNDRTT [DLC1]: the protein stability index by setting is: under setting [1], 5.37 ± 0.13; under setting [2], 5.55 ± 0.099.

Sequence LEALLEAAGIGKLSTADGKAFADP [ANKRD17] registered a protein stability index under setting [1] of 3.42 ± 0.38 and a protein stability index under setting [2] of 3.31 ± 0.15.

LEATVKKLEESKQLLKNNEKLITW [SASS6]: the protein stability index runs as follows: under setting [1], 2.73 ± 1.2; under setting [2], 3.44 ± 0.62.

In the case of LEQFVAILPKELQTWVRDHHPENG [ZNF24], the protein stability index came to 3.2 ± 0.1 under setting [1] and 3.23 ± 0.21 under setting [2].

Take LESEGSPETLTNLRKGYLFMYNLV [HACD3]: the protein stability index came to 2.02 ± 0.2 under setting [1] and 1.97 ± 0.27 under setting [2].

For LESLQDGAAESPYAYSNGIDYKTT [RAB40C], the protein stability index by setting is: under setting [1], 4.29 ± 0.34; under setting [2], 4.5 ± 0.16.

Take LEVKIRDWYQRQRPSEIKDYSPYF [KRT16]: the protein stability index turned out to be 2.19 ± 0.2 under setting [1] and 2.24 ± 0.49 under setting [2].

Take LEWHDSLFQILSERQDMYQCLVEG [ZNF511]: the protein stability index runs as follows: under setting [1], 2.42 ± 0.24; under setting [2], 2.43 ± 0.29.

For the sequence LFTSFQEPPCEGNTFFCHSNMCIN [NETO1], the protein stability index is, setting by setting: under setting [1], 2.14 ± 0.42; under setting [2], 2.13 ± 0.41.

LGAGGGSLLPGAVEQPQPQFISRF [NEK8] displayed a protein stability index under setting [1] of 3.14 ± 0.21 and a protein stability index under setting [2] of 3.32 ± 0.46.

Regarding LGGEDGEKELISMECYDIYSKTWT [GAN], the protein stability index amounted to 3.31 ± 0.45 under setting [1] and 3.19 ± 0.24 under setting [2].

As to LGSPYGQPPRFPVPHNGSSEATLP [PDLIM4], the protein stability index is 4.52 ± 0.31 under setting [1] and 4.6 ± 0.22 under setting [2].

LGVYSALREIAFTRQLHEKTSQLS [ATE1]: the protein stability index under setting [1] stood at 2.59 ± 0.71 and the protein stability index under setting [2] is 2.4 ± 0.69.

For LGYLLLGAATNVFLFVLARVPAGI [MFSD9], the protein stability index by setting is: under setting [1], 3.29 ± 0.69; under setting [2], 2.94 ± 0.4.

For the sequence LHLESELAQTRAEGQRQAQEYEAL [KRT18], the protein stability index was 5.07 ± 0.2 under setting [1] and 5.08 ± 0.26 under setting [2].

As to LIKALKIFQEKHVNLLHIESRKSK [TPH1], the protein stability index by setting is: under setting [1], 2.28 ± 0.12; under setting [2], 2.22 ± 0.23.

In the case of LIKKYSDHLENVSKLVESGIQFMD [TRIM55], the protein stability index runs as follows: under setting [1], 2.27 ± 0.18; under setting [2], 2.66 ± 0.2.

With LKAKKVWYDMFRDAAAILLDEQNK [ZMAT5], the protein stability index reads like this: under setting [1], 2.38 ± 0.1; under setting [2], 2.26 ± 0.17.

Turning to LKFLEENKIKVMHKQLLLFHNAVS [ARFIP2], the protein stability index is, setting by setting: under setting [1], 2.41 ± 0.44; under setting [2], 2.17 ± 0.26.

For the sequence LKLYYRRLFPYSQYYRWLNYGGVI [PRIM1], the protein stability index is, setting by setting: under setting [1], 2.07 ± 0.7; under setting [2], 2.6 ± 1.2.

As to LKSKAEAEALYQTKFQELQLAAGR [KRT71], the protein stability index is 3.73 ± 0.22 under setting [1] and 3.85 ± 0.41 under setting [2].

For LKYENELALRQGVEADINGLRRVL [KRT15], the protein stability index was 3.35 ± 0.23 under setting [1] and 3.6 ± 0.18 under setting [2].

On to LLDCFGIPVLMALSWFILHARYRV [SLC35F2], for which the protein stability index by setting is: under setting [1], 3.07 ± 0.33; under setting [2], 3.64 ± 0.27.

Turning to LLESSSSYKNLTLKFHKLVNVTIH [MCOLN1], the protein stability index worked out at 2.58 ± 0.41 under setting [1] and 2.33 ± 0.55 under setting [2].

LLKALVSELSEHLRDPLTSLSHTE [FCHSD1] came in with a protein stability index under setting [1] of 2.44 ± 0.42 and a protein stability index under setting [2] of 2.2 ± 0.17.

As for LLLEPGSLYILRGSARYDFSHEIL [ALKBH7], the protein stability index was found to be 2.58 ± 1.2 under setting [1] and 2.58 ± 1.3 under setting [2].

For LLQHLLEACGRCEEVPEAYVDIHT [PYCR3], the protein stability index worked out at 2.1 ± 0.48 under setting [1] and 2.42 ± 0.66 under setting [2].

For the sequence LLREEEYVAPPRGPLPTLQVVPL [TRAF3IP2], the protein stability index worked out at 2.35 ± 0.3 under setting [3] and 2.05 ± 0.33 under setting [4].

On to LLSLDPVQDKTPLYSQLLQAYKWS [MED27], for which the protein stability index under setting [1] was 2.04 ± 0.22 and the protein stability index under setting [2] amounted to 1.97 ± 0.2.

Turning to LLYWGIAEDHLDGCCKRRYLQKIE [KCNG1], the protein stability index is, setting by setting: under setting [1], 1.95 ± 0.33; under setting [2], 2.3 ± 0.12.

As to LMAEGLLPAVKVFLDWLRTNPDLI [SMG5], the protein stability index runs as follows: under setting [1], 2.57 ± 0.38; under setting [2], 2.6 ± 0.56.

As to LMAPTCVFLASKVEEFGVVSNTRL [CCNC], the protein stability index reads like this: under setting [1], 2.2 ± 0.34; under setting [2], 2.21 ± 0.14.

For LMILRRVVNESTVCLMGHERRQTL [TENT5C], the protein stability index came out at 2.33 ± 0.18 under setting [1] and 2.34 ± 0.32 under setting [2].

As to LNELPVPMVARYIRINPQSWFDNG [CPXM2], the protein stability index is 2.21 ± 0.42 under setting [1] and 2.43 ± 0.28 under setting [2].

Turning to LNMAKKSVDIVSSHWDLNHTHPSA [PLD5], the protein stability index is, setting by setting: under setting [1], 3.1 ± 0.3; under setting [2], 3.2 ± 0.28.

As for LPGNEEFQVVKDAVLDCLLDFLPK [TENT5D], the protein stability index by setting is: under setting [1], 2.32 ± 0.39; under setting [2], 2.4 ± 0.21.

With LPLERDAESFLLKSPIAPCSLDKR [CDC25B], the protein stability index runs as follows: under setting [1], 4.35 ± 0.18; under setting [2], 4.35 ± 0.15.

Consider LPPYPPYFEGAPFPHPLWLRDTYK [PWWP2B], for which the protein stability index under setting [1] amounted to 2.54 ± 0.39 and the protein stability index under setting [2] came out at 2.5 ± 0.12.

For LQPLSKPLSSQPQAIVTEDKTDIS [MLH1], the protein stability index came out at 5.31 ± 0.19 under setting [1] and 5.19 ± 0.14 under setting [2].

LQTPLDIRLKESINCQLSDPSSTK [TRIM14]: the protein stability index by setting is: under setting [1], 4.62 ± 0.29; under setting [2], 4.55 ± 0.34.

Regarding LRKRKEIREDRDRARLDSMVLLIM [DLC1], the protein stability index worked out at 2.08 ± 0.51 under setting [1] and 2.17 ± 0.34 under setting [2].

Turning to LRLRKERVSDVQKVLQGGEQEIQF [PKD2L1], the protein stability index reads like this: under setting [1], 3.74 ± 0.17; under setting [2], 3.77 ± 0.34.

With LRNNQISHKGAEELALALKGNTTL [LRRC45], the protein stability index reads like this: under setting [1], 3.92 ± 0.14; under setting [2], 4.05 ± 0.21.

With LRSRYSVASFKFDAGEVSYLPRDF [MYORG], the protein stability index reads like this: under setting [1], 2.37 ± 0.12; under setting [2], 2.42 ± 0.37.

Consider LSEPDPSHTLEERVVHWYFKLLDK [SMOC2], for which the protein stability index under setting [1] worked out at 2.61 ± 0.46 and the protein stability index under setting [2] came to 2.84 ± 0.29.

With LSFQEELLYWGIAEDHLDGCCKRR [KCNG1], the protein stability index is, setting by setting: under setting [1], 2.35 ± 0.36; under setting [2], 2.61 ± 0.26.

For LSGATKKGTEKQTTSETQKSVQCG [NETO1], the protein stability index runs as follows: under setting [1], 5.17 ± 0.27; under setting [2], 5.22 ± 0.24.

LSLLELLELLLDASALTLVLGGRR [SCNN1D]: the protein stability index is, setting by setting: under setting [1], 2.99 ± 0.95; under setting [2], 2.32 ± 0.56.

Regarding LSLNMDNLQDTLEAASFLQILPVL [KLHL13], the protein stability index runs as follows: under setting [1], 2.66 ± 0.52; under setting [2], 2.72 ± 0.45.

Turning to LSNKNGKNVELKFVDSIRRQFEFS [TENT5C], the protein stability index worked out at 2.56 ± 0.24 under setting [1] and 2.48 ± 0.42 under setting [2].

With LTGLNYEAPKYHIPYWVAYYLALL [NSDHL], the protein stability index runs as follows: under setting [1], 2.71 ± 0.59; under setting [2], 2.87 ± 0.48.

Take LTKYPTDRDSIWKCLKFLGSRHPT [INTS4]: the protein stability index reads like this: under setting [1], 2.38 ± 0.19; under setting [2], 2.39 ± 0.095.

LTLAQGAGEEDPSGMVTIITGLPL [SMG5]: the protein stability index under setting [1] was found to be 2.98 ± 0.43 and the protein stability index under setting [2] worked out at 2.76 ± 0.44.

LTQPLQGGTPHCEPCQLPSESPGS [DNAAF3] returned a protein stability index under setting [1] of 5.17 ± 0.2 and a protein stability index under setting [2] of 5.12 ± 0.12.

With LTRHTKKTHSQELMKESLQTGDLL [PLAGL1], the protein stability index by setting is: under setting [1], 4.35 ± 0.28; under setting [2], 4.59 ± 0.12.

Regarding LTSLKDLYKSLKTLSAELVPWLNL [CEP70], the protein stability index by setting is: under setting [1], 3.15 ± 0.57; under setting [2], 3.07 ± 0.42.

LVDEEEKVLIQKNLGPKSKVLILR [ADD1]: the protein stability index was 3.16 ± 0.5 under setting [1] and 2.84 ± 0.25 under setting [2].

Consider LVGKPKIFIIQACRGNQHDVPVIP [CASP6], for which the protein stability index under setting [1] was 2.56 ± 0.66 and the protein stability index under setting [2] was determined as 2.1 ± 0.2.
